No end group written: not given here.
Target: PfBDP1-BRD (residues 303–488 or 333–456), bromodomain of P. falciparum Bromodomain Protein 1, as used in ITC (P. falciparum) (UniProt Q8IJ72)
Experiment: ITC; histone peptide (2.5–5.0 mM) in the syringe, PfBDP1-BRD (303–488 or 333–456; 100–200 μM) in the sample cell; 5°C; 20 mM sodium phosphate pH 7.5, 150 mM NaCl, 1 mM TCEP; 1:1 binding model, single set of identical sites

## SGK(Ac)GPAQK(Ac)SQAAK(Ac)K(Ac)TAGK(Ac)TLGPR [H2B.ZK3acK8acK13acK14acK18ac histone peptide, penta-acetylated histone H2B.Z]
  Kd: 1300 µM
  stoichiometry N: 1
